Numbering of substitutions follows the chain as printed.
Assays:
[1] = target: recombinant HA, subtype H3 (A/Wyoming/3/2003(H3N2)) (influenza A virus A/Wyoming/3/2003 …); assay: ELISA, coated HA, IgG 5 µg/ml
[2] = target: T1, recombinant HA, subtype H5 (A/Vietnam/1203/2004 (H5N1)) (influenza A virus A/Vietnam/1203/2004 …, UniProt Q80A26 6-554); assay: ELISA, coated HA, IgG 5 µg/ml
[3] = target: recombinant HA, subtype H1 (A/New Caledonia/20/99 (H1N1)) (influenza A virus A/New Caledonia/20/99 …, UniProt Q289M7 18-565); assay: ELISA, coated HA, IgG 5 µg/ml
[4] = target: full-length HA from isolate A/Vietnam/1194/2004 (H5N1TV) on PER.C6 cells (influenza A virus A/Vietnam/1194/2004 …, UniProt Q80A26 6-554); assay: flow cytometry, transfected PER.C6 cells
[5] = target: T1, recombinant HA, subtype H5 …; assay: competition ELISA on coated HA, IgG 10 µg/ml, competitor: phage antibodies
[6] = target: T2, soluble recombinant HA (sHA) of H5N1TV (influenza A virus A/Vietnam/1194/2004 …, UniProt Q6J8F6 17-528); assay: immunoblot, reducing SDS-PAGE
[7] = target: T2, soluble recombinant HA (sHA) of H5N1TV; assay: immunoblot (data not shown)

B1: CR6344 (antibody, V domains shown)
VH: QVQLVQSGAEVKKPGSSVRVSCKASGSIFRNYAMSWVRQAPGQGLEWMGGIIAIFGTPKYAQKFQGRVTITADESTSTVYMELSGLRSEDTAMYYCARIPHYNFGSGSYFDYWGQGTLVTVSS
VL: TVLTQPPSVSGAPGQRVTISCTGSSSNIGAGYDVHWYQQLPGTAPKLLIYGNSNRPSGVPDRFSGSKSGTSATLGITGLQTGDEADYYCGTWDSSLSAYVFGTGTKVTVLG
[1]
  OD 492 nm: 0.09 OD 492 nm
[2]
  OD 492 nm: 1.31 OD 492 nm
[3]
  OD 492 nm: 1.8 OD 492 nm
[4]
  flow cytometry signal at 0.1 µg/ml: 107
  flow cytometry signal at 1 µg/ml: 328
  flow cytometry signal at 10 µg/ml: 768

B2: CR6343 (antibody, V domains shown)
VH: QVQLVQSGAEVKKPGSSVKVSCKASGVTFSYYAMSWVRQAPGQGLEWMGGISPMFGTTTYAQKFQGRVTITADDSTSTAYMEVRSLRSEDTAVYYCARSSNYYDSVYDYWGQGTLVTVSS
VL: QSVVTQPPSESVAPGQTARITCGGHNIGSNSVHWYQQKPGQAPVLVVYDNSDRPSGIPERFSGSNSGNTATLTISRVEAGDEADYYCQVWGSSSDHYVFGTGTKVTVLG
[1]
  OD 492 nm: 0.07 OD 492 nm
[2]
  OD 492 nm: 0.76 OD 492 nm
[3]
  OD 492 nm: 1.28 OD 492 nm
[5]
  residual binding of phage antibody in the presence of the IgG: > 25%

B3: CR6339 (antibody, V domains shown)
VH: EVQLVESGAEVKKPGSSVKVSCKASGGIFNSYAISWVRQAPGQGLEWMGGIIAIFHTPKYAQKFQGRVTITADESTNTAYMELRSLKSEDTALYYCARGSTYDFSSGLDYWGQGTLVTVSS
VL: QAGLTQPPSVSVAPGQTARITCGGNNIGSKSVHWYQQKPGQAPVLVVYDDSDRPSGIPERFSGSNSGNTATLTISRVEAGDEADYYCQVWDSSSDHVVFGGGTKLTVLG
[1]
  OD 492 nm: 0.07 OD 492 nm
[2]
  OD 492 nm: 0.81 OD 492 nm
[5]
  residual binding of phage antibody in the presence of the IgG: > 25%

B4: CR6268 (antibody, V domains shown)
VH: QVQLVQSGAEVKKPGSSVKVSCKASGGTFSSYAISWVRQAPGQGLEWMGGIMGMFGTTNYAQKFQGRVTITADEFTSAAYMELRSLRSEDTAVYYCARSSGYYPEYFQDWGQGTLVTVSS
VL: QSVLTQPPSESVSPGQTASVTCSGHKLGDKYVSWYQQKPGQSPVLLIYQDNRRPSGIPERFIGSNSGNTATLTISGTQALDEADYYCQAWDSSTAVFGGGTKLTVLG
[1]
  OD 492 nm: 0.08 OD 492 nm
[2]
  OD 492 nm: 1.3 OD 492 nm
[3]
  OD 492 nm: 1.78 OD 492 nm
[4]
  flow cytometry signal at 0.1 µg/ml: 43.7
  flow cytometry signal at 1 µg/ml: 219
  flow cytometry signal at 10 µg/ml: 422

B5: CR6307 (antibody, V domains shown)
VH: QVQLVQSGGGLVKPGGSLRLSCAASGFTFSSYSMNWVRQAPGKGLEWVSSISSSSSYIYYVDSVKGRFTISRDNAKNSLYLQMNSLRAEDTAVYYCARGGGSYGAYEGFDYWGQGTLVTVSS
VL: EIVLTQSPGTLSLSPGERATLSCRASQRVSSYLAWYQQKPGQAPRLLIYGASTRAAGIPDRFSGSGSGTDFTLTISRLEPEDSAVYYCQQYGRTPLTFGGGTKVEIKR
[6]
  binding result: binds
[1]
  OD 492 nm: 0.11 OD 492 nm
[2]
  OD 492 nm: 0.99 OD 492 nm
[4]
  flow cytometry signal at 0.1 µg/ml: 82.4
  flow cytometry signal at 1 µg/ml: 267
  flow cytometry signal at 10 µg/ml: 485

B6: CR6272 (antibody, V domains shown)
VH: QMQLVQSGAEVKKPGSSVKVSCKASGGTFSSYAITWVRQAPGQGLEWMGGIIGMFGSTNYAQNFQGRVTITADESTSTAYMELSSLRSEDTAVYYCARSTGYYPAYLHHWGQGTLVTVSS
VL: QSALTQPRSVSGSPGQSVTISCTGTSSDVGGYNYVSWYQQHPGKAPKLMIYDVSKRPSGVPDRFSGSKSGNTASLTISGLQAEDEADYYCSSYTSSSTHVFGTGTKVTVLG
[1]
  OD 492 nm: 0.07 OD 492 nm
[2]
  OD 492 nm: 0.58 OD 492 nm
[3]
  OD 492 nm: 0.81 OD 492 nm
[5]
  residual binding of phage antibody in the presence of the IgG: > 25%

B7: CR6257 (antibody, V domains shown)
VH: QVQLVQSGAEVKKPGSSVKVSCKASGGPFRSYAISWVRQAPGQGPEWMGGIIPIFGTTKYAPKFQGRVTITADDFAGTVYMELSSLRSEDTAMYYCAKHMGYQVRETMDVWGKGTTVTVSS
VL: B6 VL with R8A, S9A, V18I, D52E, K55N, P61S, D62N, H99Y
[1]
  OD 492 nm: 0.08 OD 492 nm
[2]
  OD 492 nm: 1.37 OD 492 nm
[3]
  OD 492 nm: 1.93 OD 492 nm
[4]
  flow cytometry signal at 0.1 µg/ml: 62.1
  flow cytometry signal at 1 µg/ml: 284
  flow cytometry signal at 10 µg/ml: 365

B8: CR6323 (antibody, V domains shown)
VH: B6 VH with Q1E, M2V, Q6E, A33G, T35S, G50D, V68L, T100S, H108P
VL: not shown
[6]
  binding result: binds
[1]
  OD 492 nm: 0.07 OD 492 nm
[2]
  OD 492 nm: 1.89 OD 492 nm
[3]
  OD 492 nm: 2.32 OD 492 nm
[4]
  flow cytometry signal at 0.1 µg/ml: 33.4
  flow cytometry signal at 1 µg/ml: 117
  flow cytometry signal at 10 µg/ml: 445

B9: CR6301 (antibody, V domains shown)
VH: EVQLVESGGGLVQPGGSLRLSCAASGFTFSIYAMSWVRQAPGKGLEWVSAISSSGDSTYYADSVKGRFTISRDNARNTLYLQMNSLRAEDTAVYYCARAYGYTFDPWGQGTLVTVSS
VL: not shown
[7]
  binding result: binds

B10: CR6141 (antibody, V domains shown)
VH: EVQLVQSGAEVKKPGASVKVSCKASGYTFTGYYVYWVRQAPGQGLEWMGWISAYNGNTNYAQKFQGRVTITADKSTSTAYMELSSLRSEDTAVYYCARSRSLDVWGQGTTVTVSS
VL: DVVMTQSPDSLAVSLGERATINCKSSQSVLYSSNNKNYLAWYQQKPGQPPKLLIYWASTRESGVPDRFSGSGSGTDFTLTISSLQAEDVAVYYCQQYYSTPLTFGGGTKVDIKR
[7]
  binding result: binds

B11: CR6314 (antibody, V domains shown)
VH: B7 VH with Q1E, Q6E
VL: SYVLTQPPSASGTPGQRVTISCSGSSSNIGSNYVYWYQQLPGTAPKLLIYRDGQRPSGVPDRFSGSKSGTSASLAISGLRSDDEADYYCATWDDNLSGPVFGGGTKLTVLG
[1]
  OD 492 nm: 0.07 OD 492 nm
[2]
  OD 492 nm: 1.48 OD 492 nm
[3]
  OD 492 nm: 1.93 OD 492 nm
[4]
  flow cytometry signal at 0.1 µg/ml: 44.5
  flow cytometry signal at 1 µg/ml: 167
  flow cytometry signal at 10 µg/ml: 400

B12: CR6296 (antibody, V domains shown)
VH: EVQLVETGAEVKKPGASVKVSCKASGYTFTSYYMHWVRQAPGQGLEWMGWINPNSGGTNYAQKFQGRVTMTRDTSISTAYMELSRLRSDDTAVYYCAREGKWGPQAAFDIWGQGTMVTVSS
VL: EIVMTQSPGTLSLSPGERATLSCRASQSVSSSYLAWYQQKPGQAPRLLIYDASSRATDIPDRFSGSGSGTDFTLTISRLEPEDFAVYYCQQYGSSLWTFGQGTKVEIKR
[7]
  binding result: binds

— patent publication US20090311265A1 (CRUCELL HOLLAND B V, published 2009)
